The record followed here is patent US20200299384A1 (published 2020).

Residue numbers refer to the chain shown, from its start. Read-outs that look alike come from different tables or passages of the source.

For assay [1], the target named is T1, human CD3 expressed on cells (Jurkat cells; human CD4 T cells) (human, UniProt P07766 23-207).
T1 construct: whole, on cells; also called human CD3 receptor on T cell surface; human CD3 expressing cells (Jurkat cells)
The experiment in a line: flow cytometry on Jurkat cells, one site saturation fit. Also on record: Best fit-Bmax: unit not given here. (In general: Flow cytometry measures light scatter and fluorescence of single cells or particles in a stream.)

Assay [2] has as its target T2, Human CD3 Gamma (CD3gamma) protein (human, UniProt P09693 23-116).
T2 construct: extracellular domain; Bought protein
The experiment in a line: ELISA, antigen coated on plate, HRP-labelled 2nd antibody. Here is the method: (§1) Human CD3epsilon, CD3delta and CD3gamma proteins were pre-coated in 96-well plates, respectively. The binding affinity of eight mAbs at various concentrations to these three different CD3 protein extracellular domain was detected by corresponding HRP labeled 2nd antibodies. The binding EC₅₀ (concentration of the test antibody when reaching half maximum binding) were analyzed by using GraphPad Prism software equation: Nonlinear regression (curve fit)—log (agonist) vs. response-Variable slope.

The target in assay [3] is T3, Human CD3 delta (CD3 delta) protein (His Tag) (human, UniProt P04234 22-105).
T3 construct: extracellular domain; Bought protein; not shown: His tag
T3 sequence (P04234 22-105, stated change not applied): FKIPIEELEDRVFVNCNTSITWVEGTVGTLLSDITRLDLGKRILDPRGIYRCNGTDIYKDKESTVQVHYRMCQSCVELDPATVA
The description is as above. Here is the method:
as §1

Assay [4] concerns the target T4, Human CD3 epsilon (CD3epsilon) protein (His Tag) (human, UniProt P07766 23-126).
T4 construct: extracellular domain; Bought protein; also called recombinant human CD3epsilon ECD; not shown: His tag
Described as above. The method, then: as §1

Assay [5] addresses T2, Human CD3 Gamma (CD3gamma) protein. Briefly: ELISA, antigen coated on plate.
The target in assay [6] is T3, Human CD3 delta (CD3 delta) protein …. Briefly: ELISA, antigen coated on plate. Background: ELISA stands for enzyme-linked immunosorbent assay.
The target in assay [7] is T5, Cynomolgus Monkey CD3 epsilon protein (Cynomolgus monkey, UniProt Q95LI5 22-117).
T5 construct: Bought protein; also called Cyno-Monkey CD3epsilon
T5 sequence (looked up): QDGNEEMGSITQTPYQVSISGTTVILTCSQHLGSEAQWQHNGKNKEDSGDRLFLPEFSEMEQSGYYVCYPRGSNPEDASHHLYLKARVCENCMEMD
The experiment in a line: ELISA, antigen coated on plate.

Assay [8] has as its target T4, Human CD3 epsilon (CD3epsilon) protein …. Briefly: ELISA, antigen coated on plate.
Assay [9] addresses T5, Cynomolgus Monkey CD3 epsilon protein. Briefly: ELISA, antigen coated on plate. The source holds these as a separate data set.
In assay [10] the target is T4, Human CD3 epsilon (CD3epsilon) protein …. The experiment in a line: ELISA, antigen coated on plate. This is another data set of the same source.
The target of assay [11] is T1, human CD3 expressed on cells (Jurkat …). Briefly: flow cytometry on Jurkat cells. Here is the method:
Various concentrations of testing mAbs were added to Jurkat cells, and then the binding activity of mAbs onto the surface of cells was detected by 2nd antibody-FITC. OKT3 was used as the positive control. The stained cells were analyzed by using a BD Biosciences FACSCanto II instrument and Flow Jo Version software. The binding EC₅₀ were calculated by using GraphPad Prism software equation: Nonlinear regression (curve fit)—log (agonist) vs. response-Variable slope.

For assay [12] the target is unchanged. Briefly: flow cytometry on Jurkat cells, one site saturation fit.
The target of assay [13] is T5, Cynomolgus Monkey CD3 epsilon protein. The experiment in a line: ELISA, antigen coated on plate. This is another data set of the same source.
Assay [14] concerns the target T1, human CD3 expressed on cells (Jurkat …). Briefly: flow cytometry on human CD4 T cells.
The target of assay [15] is T6, mouse CD3epsilon protein (mouse, UniProt P22646 22-108, limits assumed). The experiment in a line: ELISA, antigen coated on plate.
T6 sequence (P22646 22-108 limits assumed): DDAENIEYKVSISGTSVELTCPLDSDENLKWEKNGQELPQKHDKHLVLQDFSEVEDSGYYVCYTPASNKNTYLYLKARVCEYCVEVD
Assay [16] has as its target T6, mouse CD3epsilon protein. The experiment in a line: ELISA, antigen coated on plate. The source holds these as a separate data set.

T1 sequence (P07766 23-207): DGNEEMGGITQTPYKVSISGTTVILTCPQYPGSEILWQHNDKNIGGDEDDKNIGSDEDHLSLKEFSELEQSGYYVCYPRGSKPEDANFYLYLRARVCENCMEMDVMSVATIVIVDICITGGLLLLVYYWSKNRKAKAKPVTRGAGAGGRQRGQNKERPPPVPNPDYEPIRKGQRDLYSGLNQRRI
T4 sequence (P07766 23-126): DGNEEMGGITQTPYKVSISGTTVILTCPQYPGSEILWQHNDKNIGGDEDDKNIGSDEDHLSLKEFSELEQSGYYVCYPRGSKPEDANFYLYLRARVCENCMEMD
T2 sequence (P09693 23-116): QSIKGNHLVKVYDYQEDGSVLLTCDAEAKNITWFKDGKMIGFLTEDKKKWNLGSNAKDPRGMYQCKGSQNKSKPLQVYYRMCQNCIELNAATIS

B1: WBP3311_2.400.5 (antibody, V domains shown)
VH: QVQLQQSGPELVNPGASVKISCKASGYSFTNYYLHWVKQRPGQGLEWIGWIFPESDNTKYNEKLKGKATLTADTSSDTAYMHLSSLTFEDSAVYFCARDSVGNYFFDFWGQGTTLTVSS
VL: DIVMSQSPSSLAVSAGEKVTMRCKSSQSLVNNRTRKNYLAWYQQKPGQPPKLLIYWASTRESGVPDRFTGSGSGTDFTLTISSVQAEDLAVYYCAQSFILRTFGGGTKLEIK
notes: Mouse monoclonal antibody from hybridoma; also called W3311-2.400.5
Take B1: the “Best fit-Bmax” value in [1] stood at 1.13e-10. The same molecule showed a Kd in assay [1] of 0.934 nM. The “ELISA (A450)” value in assay [2] was determined as 0.05 A450; in assay [3], 0.05 A450; in assay [4], 1.57 A450; in assay [7], 2.79 A450; in [8], 2.83 A450. Also, the binding result in assay [5] and in assay [6] was “no binding” each time. Besides, the figures for the EC50 in assay [9], in [10] and in assay [11] were 0.024 nM, 0.053 nM and 2.5 nM, respectively. Moreover, the “MFI (FACS)” value in assay [11] turned out to be 2740 MFI.

B2: WBP3311_2.482.5 (antibody, V domains shown)
VH: QVQLQQSGPELVKPGSSVKISCKPSGYTFTTYYIHWVKQRPGQGLEWIGWIFPGSDNIKYNENFKDKATLTADTSSSTAYMQLSSLTSEDSAVYFCARDSVSRYYFDYWGQGTILTVSS
VL: B1 VL with R22S, N32D, Q48L, P49S
notes: Mouse monoclonal antibody from hybridoma; also called W3311-2.482.5
As to B2, in assay [1], the “Best fit-Bmax” value amounted to 1.3e-10. Also, the equilibrium dissociation constant (Kd) in assay [1] stood at 2.29 nM. In addition, the “ELISA (A450)” value in assay [2] was found to be 0.06 A450; in assay [3], 0.05 A450; in assay [4], 1.33 A450; in assay [7], 2.87 A450; in assay [8], 2.95 A450. For the same molecule, the binding result in assay [5] and in assay [6] was “no binding” in each case. Further, the EC50 in assay [9] was found to be 0.028 nM; in assay [10], 0.069 nM; in [11] it was 3.71 nM. In assay [11], the “MFI (FACS)” value worked out at 2390 MFI.

B3: WBP3311_2.166.48-z1-uIgG1K (antibody, V domains shown)
VH: QVQLVQSGAEVKKPGSSVKVSCKASGYSFTTYYIHWVRQAPGQGLEWMGWIFPGNDNIKYSEKFKGRVTITADKSTSTAYMELSSLRSEDTAVYYCAIDSVSIYYFDYWGQGTLVTVSS
VL: DIVMTQSPDSLAVSLGERATINCKSSQSLLNSRTRKNYLAWYQQKPGQPPKLLIYWASTRKSGVPDRFSGSGSGTDFTLTISSLQAEDVAVYYCTQSFILRTFGGGTKVEIK
notes: Humanized antibody; uIgG1K means human IgG1 constant region and kappa light chain; expressed in 293F cells; also called W3311-2.166.48-z1-uIgG1K
B3 showed a Kd in assay [12] of 0.201 nM. The EC50 in assay [13] was 0.043 nM; in assay [14], 1.01 nM.

B4: WBP3311_2.306.4-z1-uIgG1K (antibody, V domains shown)
VH: QVQLVQSGAEVKKPGSSVKVSCKASGFAFTDYYIHWVRQAPGQGLEWMGWISPGNVNTKYNENFKGRVTITADKSTSTAYMELSSLRSEDTAVYYCARDGYSLYYFDYWGQGTLVTVSS
VL: B3 VL with K61Q, F98H, I99T
notes: Humanized antibody; uIgG1K means human IgG1 constant region and kappa light chain; expressed in 293F cells; also called W3311-2.306.4-z1-uIgG1K
With B4, the affinity in assay [12], expressed as Kd, was 0.053 nM. The EC50 came to 0.043 nM in assay [13] and 0.253 nM in [14].

B5: WBP3311_2.306.4 (antibody, IgG2b, V domains shown)
VH: QVQLQQSGPELVKPGASVRISCKASGFAFTDYYIHWVKQRPGQGLEWIGWISPGNVNTKYNENFKGRATLTADLSSSTAYMQLSSLTSEDSAVYFCARDGYSLYYFDYWGQGTTLTVSS
VL: DIVMSQSPSSLTVSAGEKVTMSCKSSQSLLNSRTRKNYLAWYQQKPGQSPKLLIYWASTRQSGVPDRFTGSGSGTAFTLTISGVQAEDLAVYFCTQSHTLRTFGGGTKLEIK
notes: Mouse monoclonal antibody from hybridoma; also called W3311-2.306.4; W3311-2.306.4-mIgG2bK
Turning to B5, in [1], the “Best fit-Bmax” value came to 1.17e-10. The molecule further displayed a Kd in assay [1] of 0.191 nM. The “ELISA (A450)” value in [2] turned out to be 0.06 A450; in assay [3] it was 0.05 A450; in assay [4], 1.46 A450; in [7], 2.82 A450; in assay [8], 2.91 A450. For the same molecule, the binding result in assay [5] and in assay [6] was “no binding” throughout. Besides, the EC50 in [14] is 0.461 nM; in [9] it was 0.011 nM; in assay [10], 0.012 nM; in [11], 0.57 nM. Also, the “MFI (FACS)” value in [11] worked out at 3360 MFI.

B6: WBP3311_2.615.8 (antibody, V domains shown)
VH: QVQLQQSGPELVKPGTSMKISCKASGYSFTDFYTHWVRQRPGQGLEWIGWIFPGSDNIKYNEKFKGKATLTADTSSSTAYMQLSSLTSEDSAVYFCARDSVSVYYFDYWGQGTTLTVSS
VL: B1 VL with S14T, R22S, V30L, N32I, P49S, E61D, A95T
notes: Mouse monoclonal antibody from hybridoma; also called W3311-2.615.8
In the case of B6, the “Best fit-Bmax” value in [1] amounted to 1.2e-10. In [1], this molecule yielded a Kd of 2.23 nM. The “ELISA (A450)” value in assay [2] is 0.05 A450; in [3], 0.05 A450; in assay [4], 1.55 A450; in assay [7] it was 2.71 A450; in assay [16], 0.471 A450; in assay [8], 2.82 A450. Besides, the binding result in [5], in [15] and in [6] was “no binding” each time. Further, the EC50 was found to be 0.025 nM in assay [9], 0.033 nM in assay [10] and 4.65 nM in assay [11]. Moreover, the “MFI (FACS)” value in assay [11] came out at 2220 MFI.

B7: WBP331_2.488.33 (antibody, V domains shown)
VH: QVQLQQSGPELVKPGTSVKISCKASGFSFTNYYIHWVKQRPGQGPEWIGWIFPGTVNTKYNEKFKGKATLTADTSSNTAFMQLSSLTSADSAVYFCARDSVGIYYFDFWGLGTTLTVSS
VL: B1 VL with M21V, R22S, V30L, P49S, A95T
notes: Mouse monoclonal antibody from hybridoma; also called WBP3311_2.488.33; W3311-2.488.33
B7: the “Best fit-Bmax” value in assay [1] is 1.3e-10. This molecule had a Kd in assay [1] of 1.32 nM. Moreover, the “ELISA (A450)” value in assay [2] worked out at 0.06 A450; in assay [3], 0.05 A450; in [4], 1.7 A450; in assay [7], 2.83 A450; in assay [8] it was 2.91 A450. Moreover, the binding result in [5] and in assay [6] was “no binding” each time. The EC50 turned out to be 0.019 nM in [9], 0.026 nM in assay [10] and 2.97 nM in assay [11]. For the same molecule, the “MFI (FACS)” value in assay [11] came to 2270 MFI.

B8: WBP3311_2.383.47 (antibody, V domains shown)
VH: QVQLQQSGPELVKPGASVRISCKTSGFTFTNYYIHWVIQRPGQGLEWIGWISPENGNTKYNENFQDKATLTADISSSTAYMHLSSLTSEDSAVYFCARDGYSLYYFDYWGQGTTLTVSS
VL: B5 VL with T59I, Q61V, A76T, F93Y
notes: Mouse monoclonal antibody from hybridoma
As to B8, the “Best fit-Bmax” value in assay [1] was 1.12e-10. In [1], this molecule returned a Kd of 0.403 nM. Besides, the “ELISA (A450)” value in [2] was 0.05 A450; in assay [3], 0.05 A450; in [4], 1.61 A450; in assay [7], 2.76 A450; in assay [8] it was 2.79 A450. The binding result in assay [5] and in assay [6] was “no binding” in each case. For the same molecule, the EC50 turned out to be 0.028 nM in assay [9], 0.074 nM in assay [10] and 0.91 nM in assay [11]. The “MFI (FACS)” value in assay [11] came to 2130 MFI.

B9: WBP3311_2.844.8 (antibody, V domains shown)
VH: B5 VH
VL: B5 VL with Q61E
notes: Mouse monoclonal antibody from hybridoma; also called W3311-2.844.8; clone 2.844.8
As to B9, in assay [1], the “Best fit-Bmax” value is 1.19e-10. The affinity in assay [1], expressed as Kd, was 0.252 nM. For the same molecule, the “ELISA (A450)” value in assay [2] is 0.07 A450; in assay [3], 0.06 A450; in assay [4] it was 1.54 A450; in assay [7], 2.75 A450; in [8], 2.92 A450. In addition, the binding result in assay [5] and in assay [6] was “no binding” each time. Moreover, the EC50 is 0.009 nM in assay [9], 0.011 nM in [10] and 0.77 nM in assay [11]. In addition, the “MFI (FACS)” value in [11] came to 984 MFI.

Usually Kd stands for the constant that tells how readily two partners part at equilibrium. As usually defined, the EC50 is the concentration needed to bring the measured effect to its halfway point.
